Numbering of substitutions follows the chain as printed.
T1: rhIL-17A (human, UniProt Q16552 24-155)
T1 sequence: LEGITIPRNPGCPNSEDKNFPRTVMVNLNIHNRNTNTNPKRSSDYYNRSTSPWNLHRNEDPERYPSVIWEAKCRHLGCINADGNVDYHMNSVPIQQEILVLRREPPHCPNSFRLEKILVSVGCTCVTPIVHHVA

T2: mouse IL-17A (mouse, UniProt Q62386 26-158, limits assumed)
T2 construct: also called mu IL-17A; mu IL-17
T2 sequence (looked up): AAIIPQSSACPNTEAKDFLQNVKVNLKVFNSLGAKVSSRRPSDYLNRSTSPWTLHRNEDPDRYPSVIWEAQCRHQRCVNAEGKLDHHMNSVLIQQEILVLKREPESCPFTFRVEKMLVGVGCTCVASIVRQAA

T3: FLAG-huIL-17A (human, UniProt Q16552 24-155)
T3 construct: also called FLAG-huL-17A; FLAG-IL-17A
T3 sequence: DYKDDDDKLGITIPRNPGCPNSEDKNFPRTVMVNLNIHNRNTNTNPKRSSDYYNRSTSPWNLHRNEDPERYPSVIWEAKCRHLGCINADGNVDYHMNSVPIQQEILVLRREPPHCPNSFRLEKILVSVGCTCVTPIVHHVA

T4: cynomolgus monkey IL-17A (cynomolgus monkey, UniProt A0A2K5TTB0 24-155)
T4 construct: also called cyno IL-17A; cyno IL-17
T4 sequence: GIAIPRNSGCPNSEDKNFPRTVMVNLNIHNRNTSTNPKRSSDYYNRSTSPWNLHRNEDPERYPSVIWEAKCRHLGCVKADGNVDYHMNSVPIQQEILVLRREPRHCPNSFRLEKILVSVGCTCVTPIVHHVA

T5: native human IL-17A (human, UniProt Q16552 24-155)
T5 sequence: T4 sequence with A3T, S8P, S34N, V77I, K78N, R104P

T6: FLAG-tagged human IL-17F (human, UniProt Q96PD4 31-163, limits assumed)
T6 construct: also called intact IL-17F
T6 sequence: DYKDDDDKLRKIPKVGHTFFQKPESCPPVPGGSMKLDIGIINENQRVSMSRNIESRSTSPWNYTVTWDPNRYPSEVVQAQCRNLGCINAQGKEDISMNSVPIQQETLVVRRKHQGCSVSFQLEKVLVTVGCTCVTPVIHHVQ

T7: FLAG-tagged mouse IL-17A (mouse, UniProt Q62386 26-158, limits assumed)
T7 construct: also called mIL-17A; intact mIL-17A
T7 sequence: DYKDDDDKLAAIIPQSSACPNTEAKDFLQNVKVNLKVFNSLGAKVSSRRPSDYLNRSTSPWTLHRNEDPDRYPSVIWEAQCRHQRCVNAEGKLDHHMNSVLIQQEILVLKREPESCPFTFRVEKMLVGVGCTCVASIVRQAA

B1: rat 1D10 (antibody, V domains shown)
VH: QVQLKESGPGLVQPSQTLSLTCTVSGFSLTNYYVHWVRQPPGKGLEWMGGVWNDGDTSYNSVLRSRLSITRDTSKSQVLLKMSSLQTEDTATYYCAREGREGFVGYYVMDAWGPGASVTVSS
VL: DIQMTQSPSFLSASVGERVTLSCKASQNINKYLDWFQQKLGEAPKLLIYNADNLHTGIPSRFSGSGSFSDFILTISSLQPEDDATYFCLQRESWPYTFGAGTKLELKR
notes: Parental rat monoclonal antibody; also called ID10; anti-IL-17A antibody 1D10
B2: rat 16C10 (antibody, rat IgG1, V domains shown)
VH: QVELRESGPGLVQPSQTLSLTCTVSGFSLPSHSVSWIRQPPGKGLEWMGIIWNNGGTDYNSAFKSRLTISRDTSKSQVFLKMNSLQTEDTAMYFCARNMYITDYYYENYFMDAWGQGASVTVSS
VL: DIVMTQSPSSLAVSIGETVTLNCKSSQSLLFSENQKNYLAWYQHKSGQSPKLLVYWTSTRQSGVPDRFMGSGSGTDFTLTISSVQAEDLAIYYCQQSYYTPYTFGAGTKLELKR
notes: also called 16C10C; antibody 16C10
B3: rat 23E12 (antibody, V domains shown)
VH: QVQLKESGPGLVQPSQTLSLTCTVFGFSLTNNGVTWVRQPPGKGLEWIAEVSSGGSTDYNSALKSRLSISRDTSKSQVFLRMNSLQTEDTAIYFCARQEVFTGLLDYWGQGVMVTVSS
VL: DIQMTQSPASLSASLGETVTIQCQASEDIYSGLAWYHQKPGKSPQLLILGASRLHDGVPSRFSGSGSGIEYSLKINNMQTEDEGIYFCQQGLKYPPTFGGGTKLELKR
notes: Parental rat monoclonal antibody (hybridoma PTA-7740)

Columns and labels:
[1] = target: T1, rhIL-17A; assay: cell-based or functional assay
[2] = target: T2, mouse IL-17A; assay: KinExA, solution equilibrium
Method: (§1) The equilibrium dissociation constants (Kd) for anti human IL-17A antibodies were determined using the KinExA 3000 instrument (Sapidyne Instruments Inc., Boise, Id., USA). KinExA uses the principle of the Kinetic Exclusion Assay method based on measuring the concentration of uncomplexed antibody in a mixture of antibody, antigen and antibody-antigen complex. […] The concentration of free antibody is measured by exposing the mixture to a solid-phase immobilized antigen for a very brief period of time. l practice, this is accomplished by flowing the solution phase antigen-antibody mixture past antigen-coated particles trapped in a flow cell. Data generated by the instrument are analyzed using custom software.
(§2) IL-17A was derived from either human (“hu”), cynomolgus monkey (“cyno”), or mouse (“mu”). IL-17A from the same species was used in both the immobilized and solution phases for each KinExA determination. Poly(methyl-methacrylate) (PMMA) particles (98 micron) were coated with human, cyno or mouse IL-17A according to Sapidyne “Protocol for coating PMMA particles with biotinylated ligands having short or nonexistent linker arms.” All experimental procedures were done according to the KinExA 3000 manual. All runs were done in duplicate.
(§3) Two-fold serial dilutions of the antigen were prepared and mixed with the antibody at constant concentration. The mixture was incubated for 2 hours at 25° C. to equilibrate.

[3] = target: T3, FLAG-huIL-17A; assay: KinExA, solution equilibrium
Method: as §1, §2, §3

[4] = target: T4, cynomolgus monkey IL-17A; assay: KinExA, solution equilibrium
Method: as §1, §2, §3

[5] = target: T2, mouse IL-17A; assay: ECL (Origen); area under the curve
From the text: (§4) Origen electrochemiluminescence technology, developed by IGEN, Inc. (Gaithersburg, Md., USA), and was employed to measure the binding of rat anti-human IL-17A antibodies (and one chimeric antibody) to FLAG-huL-17A. […] Electrochemiluminescence technology uses a stable ruthenium metal chelate (Ori-TAG) which, in the presence of tripropylamine (TPA), generates electrochemiluminescence upon voltage application. Paramagnetic beads, microns in diameter, act as the solid phase and facilitate rapid assay kinetics. The bead/complex is channeled through a flow cell and captured at an electrode by magnetic application. Voltage is applied and resulting electrochemiluminescence is measured.
(§5) ECL assays were performed as follows. Three-fold serial dilutions of anti-human IL-17A mAbs in 50 μl of the assay buffer were made in a 96-well microtiter plate to give 1-3 μg/ml final concentration in the first well. […] Finally 50 μl of Origen Streptavidin-Dynabeads at 0.1 mg/ml was added to each well. […] GraphPad Prism software (GraphPad Software, San Diego, Calif., USA) was used to plot the data and calculate area under the curve, which is a rough measure of binding.

[6] = target: T4, cynomolgus monkey IL-17A; assay: ECL (Origen); area under the curve
From the text: as §4, §5

[7] = target: T5, native human IL-17A; assay: cell-based or functional assay
[8] = target: T4, cynomolgus monkey IL-17A; assay: cell-based or functional assay
[9] = target: T1, rhIL-17A; assay: cell-based or functional assay; remark: listed apart in the source
[10] = target: T4, cynomolgus monkey IL-17A; assay: cell-based or functional assay; remark: listed apart in the source
[11] = target: T1, rhIL-17A; assay: cell-based or functional assay; remark: listed apart in the source
[12] = target: T4, cynomolgus monkey IL-17A; assay: cell-based or functional assay; remark: listed apart in the source
[13] = target: T1, rhIL-17A; assay: cell-based or functional assay; remark: listed apart in the source
[14] = target: T3, FLAG-huIL-17A; assay: ECL (Origen), antibody titrated against biotinylated antigen; area under the curve
From the text: as §4, §5

[15] = target: T5, native human IL-17A; assay: cell-based or functional assay; remark: listed apart in the source
[16] = target: T4, cynomolgus monkey IL-17A; assay: cell-based or functional assay; remark: listed apart in the source
[17] = target: T1, rhIL-17A; assay: cell-based or functional assay; remark: listed apart in the source
[18] = target: T6, FLAG-tagged human IL-17F; assay: AlphaScreen
Method: Each of these three proteins was linked to an N-terminal FLAG® peptide tag (see residues 1 to 9 of SEQ ID NO.: 42). […] Donor and acceptor beads were mixed, illuminated at 680 nm, and emission was measured at 520-620 nm.

[19] = target: T1, rhIL-17A; assay: KinExA, solution equilibrium
Method: as §1, §2, §3

[20] = target: T2, mouse IL-17A; assay: ECL (Origen)
Method: as §5

[21] = target: T1, rhIL-17A; assay: indirect ELISA, rhIL-17A coated on plate
Method: Binding of anti-human-IL-17A monoclonal antibodies to rhIL-17A is assessed using an indirect enzyme-linked immunosorbent assay (ELISA). Briefly, a fixed concentration of rhIL-17A is bound directly to the wells of a microtiter plate. The monoclonal anti-IL-17A to be assayed is then is added to the rhIL-17A coated plate, where the antibody is captured and quantitated.
A 96-well U-bottom MaxiSorp plate is coated with 50 μl/well of rhIL-17A (0.5 μg/ml) in carbonate coating buffer (the “assay plate”). Carbonate coating buffer is 2.9 g/L NaHFCO₃, 1.6 g/L Na₂CO₃, pH 9.4. Plates are incubated covered at 4° C. overnight. Monoclonal antibodies to be screened are serially diluted in duplicate across the rows of a V-bottom plate such that the final volume is 60 μl/well (the “serial dilution plate”). The assay plate is washed three times with PBS-Tween in a plate washer (SkanWasher, Molecular Devices, Sunnyvale, Calif., USA) and blotted dry. PBS-Tween is obtained by adding 0.5 ml/L Tween 20 to 1×PBS. Fifty μl from each well of the serial dilution plate is transferred to the assay plate and incubated at 25° C. for one hour. Secondary antibodies are diluted 1/2000 in diluent (PBS-BSA-Tween, which is PBS-Tween with 1 g/L BSA). The secondary antibody for rat monoclonal antibodies is goat anti-rat IgG (H+L)—HRP (Jackson ImmunoResearch Laboratories, Inc., West Grove, Pa., USA). The secondary antibody for chimeric and humanized monoclonal antibodies is F(ab′)₂ goat anti-human IgG Fcγ—HRP (Jackson ImmunoResearch Laboratories, Inc.). The assay plate is washed as before. Diluted secondary antibodies (100 μl/well) are added to the appropriate wells in the assay plate, and the plate is incubated at 25° C. for 45 minutes. The assay plate is washed as before.

[22] = target: T7, FLAG-tagged mouse IL-17A; assay: observation on which Example 19 is based

Binder | IC50, foreskin fibroblast (HS68) assay, rhIL-17A-induced IL-6 [1] [nM] | Kd [2] [nM] | Kd [3] [nM] | Kd [4] [nM] | Area Under Peak [5] | Area Under Peak [6] | IC50, synoviocyte IL-6 production, NHP IL-17A (30 ng/ml) [8] [µg/mL] | IC50, synoviocyte IL-6 production, rhIL-17A (30 ng/ml) [9] [µg/mL] | IC50, inhibition of IL-6 production in NHDF cells, cyno IL-17A [10] [nM] | IC50, inhibition of IL-6 production in NHDF cells, rhIL-17A [11] [nM] | IC50, Ba/F3 hIL-17Rc-mGCSFR proliferation assay, IL-17A at 100 pM [12] [pM] | IC50, Ba/F3 hIL-17Rc-mGCSFR proliferation assay, IL-17A at 276 pM [13] [pM] | Area Under Peak [14] | IC50, synoviocyte IL-8 production, NHP IL-17A (30 ng/ml) [16] [µg/mL] | IC50, synoviocyte IL-8 production, rhIL-17A (30 ng/ml) [17] [µg/mL] | further results
B1 | 0.065 | 0.0103 | 0.0017 | 0.0098 | 252000 | 136000 | 0.065 | 0.105 | 0.4 | 1 | 19 | 223 | 477000 | 0.038 | 0.059 | IC50, synoviocyte IL-6 production, Native huIL-17A (10 ng/ml) [7]: 0.025 µg/mL; IC50, synoviocyte IL-8 production, Native huIL-17A (10 ng/ml) [15]: 0.04 µg/mL
B2 | 0.067 |  | 0.0036 | 0.0017 |  | 152000 | 0.06 | 0.063 | 0.2 | 0.5 | 27 | 162 | 286000 | 0.033 | 0.038 | binding result [18]: no binding; Kd [19]: 0.006 nM; binding result [20]: no binding (tested: 1-3 µg/ml antibody in the first well); IC50, Ba/F3 hIL-17Rc-mGCSFR proliferation assay, IL-17A at 100 pM [13]: 20 pM; EC50 [21]: 0.274 nM; binding result [22]: no binding
B3 | 0.126 | 7 | 0.0028 | 0.028 | 143000 | 111000 |  |  | 0.3 | 1 |  |  | 285000 |  |  | 

Source: patent US20090175881A1 (SCHERING, published 2009)
